# Results: the supplement of paper PMC9112550, “Optimization of the antimicrobial peptide Bac7 by deep mutational scanning” (BMC Biology, 2022)
# Tested on: Escherichia coli TOP10
# Experiment: shrunken log2 fold change of peptide-encoding DNA abundance (4.5 h post-induction vs induction); higher = less antimicrobial activity (less host growth inhibition)
# Settings: time post-induction: 4.5 h; library: site-saturation at positions 5, 18, 19, 20
# 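Further: peptides expressed intracellularly from a pBAD plasmid library in pooled LB shake-flask culture, induced with 0.3% L-arabinose, DNA abundance read by NGS, three biological replicates, DESeq2 with apeglm shrinkage.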
row,Sequence,shrunken log2 fold change
1,RRIRSRPPRLPRPRPRPNYWPRP,-0.143
2,RRIRTRPPRLPRPRPRPVYIPRP,-0.6
3,RRIRCRPPRLPRPRPRPTMQPRP,-0.0203
4,RRIRARPPRLPRPRPRPPNRPRP,0.499
5,RRIRMRPPRLPRPRPRPAYCPRP,0.075
6,RRIRQRPPRLPRPRPRPDSYPRP,-0.127
7,RRIRRRPPRLPRPRPRPRANPRP,0.954
8,RRIRIRPPRLPRPRPRPPRAPRP,0.417
9,RRIRLRPPRLPRPRPRPYTPPRP,-0.484
10,RRIRNRPPRLPRPRPRPPLWPRP,0.539
11,RRIRHRPPRLPRPRPRPTEHPRP,-0.243
12,RRIRGRPPRLPRPRPRPYNTPRP,0.328
13,RRIRARPPRLPRPRPRPEEVPRP,0.0554
14,RRIRYRPPRLPRPRPRPTEFPRP,-0.465
15,RRIRDRPPRLPRPRPRPSLNPRP,0.138
16,RRIRDRPPRLPRPRPRPLACPRP,0.945
17,RRIRWRPPRLPRPRPRPYRKPRP,0.0527
18,RRIRLRPPRLPRPRPRPLRVPRP,0.4
19,RRIRHRPPRLPRPRPRPSFLPRP,-0.729
20,RRIRLRPPRLPRPRPRPGWRPRP,0.317
21,RRIRMRPPRLPRPRPRPQAYPRP,-0.0933
22,RRIRMRPPRLPRPRPRPLYEPRP,0.362
23,RRIRFRPPRLPRPRPRPGCAPRP,1.03
24,RRIRARPPRLPRPRPRPFKCPRP,-0.0202
25,RRIRKRPPRLPRPRPRPAGAPRP,0.698

row,Sequence,shrunken log2 fold change
1,RRIRNRPPRLPRPRPRPDQGPRP,-0.257
2,RRIRIRPPRLPRPRPRPTRAPRP,0.561
3,RRIRSRPPRLPRPRPRPPSVPRP,0.279
4,RRIRMRPPRLPRPRPRPLDRPRP,0.816
5,RRIRARPPRLPRPRPRPHNNPRP,-0.363
6,RRIRDRPPRLPRPRPRPCRHPRP,0.344
7,RRIRYRPPRLPRPRPRPVMYPRP,-0.134
8,RRIRNRPPRLPRPRPRPEIPPRP,-0.113
9,RRIRFRPPRLPRPRPRPMLEPRP,0.147
10,RRIRQRPPRLPRPRPRPNQEPRP,-0.0578
11,RRIRERPPRLPRPRPRPHCIPRP,-0.000243
12,RRIRDRPPRLPRPRPRPDANPRP,0.163
13,RRIRIRPPRLPRPRPRPVIKPRP,-0.918
14,RRIRLRPPRLPRPRPRPWCRPRP,0.0427
15,RRIRKRPPRLPRPRPRPGYAPRP,0.223
16,RRIRWRPPRLPRPRPRPVAPPRP,0.522
17,RRIRFRPPRLPRPRPRPFDIPRP,-0.182
18,RRIRQRPPRLPRPRPRPSQSPRP,-0.00144
19,RRIRGRPPRLPRPRPRPNNAPRP,0.0616
20,RRIRTRPPRLPRPRPRPNATPRP,0.469
21,RRIRVRPPRLPRPRPRPAHTPRP,0.109
22,RRIRPRPPRLPRPRPRPEEVPRP,0.0532
23,RRIRHRPPRLPRPRPRPIMSPRP,-0.161
24,RRIRHRPPRLPRPRPRPNKQPRP,-0.545
25,RRIRPRPPRLPRPRPRPCTYPRP,-0.253

row,Sequence,shrunken log2 fold change
1,RRIRDRPPRLPRPRPRPWLVPRP,-0.117
2,RRIRGRPPRLPRPRPRPFAEPRP,2.46
3,RRIRCRPPRLPRPRPRPKVGPRP,-0.0582
4,RRIRSRPPRLPRPRPRPCWVPRP,-0.272
5,RRIRCRPPRLPRPRPRPFQKPRP,0.0129
6,RRIRKRPPRLPRPRPRPIYGPRP,-0.00172
7,RRIRGRPPRLPRPRPRPVESPRP,0.00705
8,RRIRRRPPRLPRPRPRPWLLPRP,0.0822
9,RRIRERPPRLPRPRPRPEGNPRP,0.00934
10,RRIRYRPPRLPRPRPRPDKFPRP,-0.116
11,RRIRWRPPRLPRPRPRPWLRPRP,0.0741
12,RRIRERPPRLPRPRPRPTQGPRP,0.555
13,RRIRWRPPRLPRPRPRPPQRPRP,0.548
14,RRIRMRPPRLPRPRPRPPPYPRP,1.15
15,RRIRWRPPRLPRPRPRPFMSPRP,-0.0321
16,RRIRARPPRLPRPRPRPTVHPRP,2.45
17,RRIRCRPPRLPRPRPRPSTIPRP,0.255
18,RRIRLRPPRLPRPRPRPWYHPRP,0.112
19,RRIRIRPPRLPRPRPRPHYWPRP,-0.85
20,RRIRLRPPRLPRPRPRPGEMPRP,0.0594
21,RRIRKRPPRLPRPRPRPYMSPRP,0.0659
22,RRIRCRPPRLPRPRPRPAHDPRP,0.031
23,RRIRCRPPRLPRPRPRPQHMPRP,-0.74
24,RRIRHRPPRLPRPRPRPPINPRP,-0.294
25,RRIRRRPPRLPRPRPRPRFAPRP,0.616

row,Sequence,shrunken log2 fold change
1,RRIRMRPPRLPRPRPRPSCHPRP,-0.0523
2,RRIRERPPRLPRPRPRPVKEPRP,-0.0153
3,RRIRPRPPRLPRPRPRPCRVPRP,-0.309
4,RRIRPRPPRLPRPRPRPWPNPRP,-0.0364
5,RRIRTRPPRLPRPRPRPGCYPRP,-0.115
6,RRIRYRPPRLPRPRPRPYYRPRP,-0.161
7,RRIRERPPRLPRPRPRPWLLPRP,-1.56
8,RRIRLRPPRLPRPRPRPQQQPRP,0.0294
9,RRIRIRPPRLPRPRPRPIDWPRP,-0.0878
10,RRIRWRPPRLPRPRPRPGPMPRP,0.327
11,RRIRDRPPRLPRPRPRPEWQPRP,0.0508
12,RRIRVRPPRLPRPRPRPQKQPRP,-0.376
13,RRIRDRPPRLPRPRPRPMDKPRP,-0.0384
14,RRIRCRPPRLPRPRPRPTCNPRP,-0.265
15,RRIRCRPPRLPRPRPRPFTCPRP,-0.223
16,RRIRERPPRLPRPRPRPRLPPRP,0.35
17,RRIRRRPPRLPRPRPRPFRYPRP,0.292
18,RRIRNRPPRLPRPRPRPVSWPRP,0.162
19,RRIRARPPRLPRPRPRPWQTPRP,0.0127
20,RRIRRRPPRLPRPRPRPCTIPRP,-0.182
21,RRIRERPPRLPRPRPRPYYAPRP,-0.72
22,RRIRWRPPRLPRPRPRPCWAPRP,0.197
23,RRIRPRPPRLPRPRPRPGSKPRP,-0.0791
24,RRIRNRPPRLPRPRPRPRITPRP,0.0468
25,RRIRIRPPRLPRPRPRPSEVPRP,0.0174

row,Sequence,shrunken log2 fold change
1,RRIRNRPPRLPRPRPRPIIFPRP,-1.03
2,RRIRFRPPRLPRPRPRPYCPPRP,-0.721
3,RRIRFRPPRLPRPRPRPVFVPRP,-0.277
4,RRIRFRPPRLPRPRPRPQEPPRP,0.436
5,RRIRSRPPRLPRPRPRPSNNPRP,-0.66
6,RRIRTRPPRLPRPRPRPVRRPRP,0.38
7,RRIRMRPPRLPRPRPRPGFQPRP,0.151
8,RRIRFRPPRLPRPRPRPGNHPRP,-0.0246
9,RRIRPRPPRLPRPRPRPCNTPRP,-0.333
10,RRIRKRPPRLPRPRPRPTPNPRP,0.553
11,RRIRWRPPRLPRPRPRPMFMPRP,-0.209
12,RRIRYRPPRLPRPRPRPIMVPRP,-0.152
13,RRIRNRPPRLPRPRPRPITNPRP,-0.279
14,RRIRDRPPRLPRPRPRPQALPRP,0.214
15,RRIRARPPRLPRPRPRPECRPRP,0.874
16,RRIRRRPPRLPRPRPRPTFVPRP,0.998
17,RRIRWRPPRLPRPRPRPNKKPRP,-0.076
18,RRIRHRPPRLPRPRPRPLTMPRP,-0.3
19,RRIRERPPRLPRPRPRPMTGPRP,-0.0422
20,RRIRDRPPRLPRPRPRPLRRPRP,0.463
21,RRIRQRPPRLPRPRPRPTHCPRP,0.897
22,RRIRRRPPRLPRPRPRPYDYPRP,0.00863
23,RRIRHRPPRLPRPRPRPNHAPRP,-0.223
24,RRIRGRPPRLPRPRPRPIEGPRP,0.0275
25,RRIRERPPRLPRPRPRPVVWPRP,0.33

row,Sequence,shrunken log2 fold change
1,RRIRHRPPRLPRPRPRPRRGPRP,0.343
2,RRIRFRPPRLPRPRPRPRPSPRP,0.433
3,RRIRVRPPRLPRPRPRPSNLPRP,-0.586
4,RRIRRRPPRLPRPRPRPNNWPRP,0.612
5,RRIRRRPPRLPRPRPRPTRYPRP,0.337
6,RRIRHRPPRLPRPRPRPTYKPRP,-0.333
7,RRIRSRPPRLPRPRPRPNTFPRP,-0.0296
8,RRIRNRPPRLPRPRPRPQMTPRP,-0.661
9,RRIRDRPPRLPRPRPRPYKFPRP,-0.223
10,RRIRIRPPRLPRPRPRPYENPRP,-0.255
11,RRIRHRPPRLPRPRPRPCDLPRP,-0.502
12,RRIRARPPRLPRPRPRPPVKPRP,0.404
13,RRIRKRPPRLPRPRPRPDFRPRP,0.134
14,RRIRKRPPRLPRPRPRPQMGPRP,0.0203
15,RRIRGRPPRLPRPRPRPISNPRP,0.0729
16,RRIRVRPPRLPRPRPRPFQIPRP,-0.603
17,RRIRWRPPRLPRPRPRPMIPPRP,0.0901
18,RRIRNRPPRLPRPRPRPGCCPRP,-0.0641
19,RRIRYRPPRLPRPRPRPEWVPRP,-0.0265
20,RRIRRRPPRLPRPRPRPYMNPRP,-0.621
21,RRIRRRPPRLPRPRPRPHKFPRP,-0.132
22,RRIRVRPPRLPRPRPRPDDMPRP,-0.239
23,RRIRKRPPRLPRPRPRPYSEPRP,-0.269
24,RRIRWRPPRLPRPRPRPQASPRP,-0.11
25,RRIRIRPPRLPRPRPRPVMVPRP,-0.066
